Publication PMC12965321

Target: RING1 [the product of Sex combs extra (Sce) gene] (D. melanogaster (endogenous in embryos)) (UniProt Q9VB08)
Test: co-IP; nuclear extract of RYBP-KO, Siesta-Strep embryos (no RYBP), dialysed against 25 mM Hepes-KOH pH 7.6, 0.1 M KCl; anti-RING1 cross-linked to Dynabeads or Strep-Tactin Sepharose, 0.02% NP-40, overnight at 4°C; Western blot; compared with Siesta-Strep extract

UniProt Q9VB08, sequence (Q9VB08 whole entry): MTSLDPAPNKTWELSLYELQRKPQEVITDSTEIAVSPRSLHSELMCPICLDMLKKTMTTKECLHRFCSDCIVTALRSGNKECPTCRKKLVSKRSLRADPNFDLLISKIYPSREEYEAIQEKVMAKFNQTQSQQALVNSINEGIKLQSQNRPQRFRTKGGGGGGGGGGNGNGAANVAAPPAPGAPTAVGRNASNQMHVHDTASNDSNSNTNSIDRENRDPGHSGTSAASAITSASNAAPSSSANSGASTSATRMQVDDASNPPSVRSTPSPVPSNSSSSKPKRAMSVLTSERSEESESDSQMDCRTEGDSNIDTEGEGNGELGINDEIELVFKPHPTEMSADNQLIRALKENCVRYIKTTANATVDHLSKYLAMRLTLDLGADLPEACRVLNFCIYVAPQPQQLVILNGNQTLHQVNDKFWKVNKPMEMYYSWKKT

## Twin-Strep-tagged and Myc-tagged Siesta protein (natural protein)
  fold reduction of coimmunoprecipitation without RYBP against extract with RYBP: > 6 fold
